The source of these data is paper PMC2603305 (Biochemistry, 2008).

One may read the Kd as the constant that tells how readily two partners part at equilibrium. The Km is the concentration of substrate that gives half-maximal velocity. Broadly, the kcat is the number of substrate molecules converted per active site and unit of time at saturation. As usually defined, the kcat/Km is the second-order rate constant that governs catalysis at low substrate concentration.

Read-outs that look alike come from different tables or passages of the source.

Data set [1] addresses T1, Kvβ2 (β-subunit of the voltage-gated potassium channel) (Rattus norvegicus, UniProt P62483).
T1 sequence (P62483 39-367): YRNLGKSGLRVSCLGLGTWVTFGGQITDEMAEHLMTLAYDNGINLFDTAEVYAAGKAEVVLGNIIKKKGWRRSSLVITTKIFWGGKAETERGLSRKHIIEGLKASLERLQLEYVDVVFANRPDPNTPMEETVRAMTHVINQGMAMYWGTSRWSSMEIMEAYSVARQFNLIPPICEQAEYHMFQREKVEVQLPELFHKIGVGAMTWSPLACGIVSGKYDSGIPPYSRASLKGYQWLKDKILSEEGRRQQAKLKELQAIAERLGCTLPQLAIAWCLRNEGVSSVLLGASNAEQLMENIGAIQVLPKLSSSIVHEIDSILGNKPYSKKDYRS
Put plainly: NADPH oxidation, specific activity at […]. The format is biochemical.

The target in data set [2] is T1, Kvβ2 (β-subunit of the voltage-gated potassium channel). Put plainly: intrinsic fluorescence titration. The format is binding.
A further data set concerns the target T2, Kvβ2:Y90F (Rattus norvegicus, UniProt P62483, Y90F).
T2 sequence (P62483 39-367 Y90F): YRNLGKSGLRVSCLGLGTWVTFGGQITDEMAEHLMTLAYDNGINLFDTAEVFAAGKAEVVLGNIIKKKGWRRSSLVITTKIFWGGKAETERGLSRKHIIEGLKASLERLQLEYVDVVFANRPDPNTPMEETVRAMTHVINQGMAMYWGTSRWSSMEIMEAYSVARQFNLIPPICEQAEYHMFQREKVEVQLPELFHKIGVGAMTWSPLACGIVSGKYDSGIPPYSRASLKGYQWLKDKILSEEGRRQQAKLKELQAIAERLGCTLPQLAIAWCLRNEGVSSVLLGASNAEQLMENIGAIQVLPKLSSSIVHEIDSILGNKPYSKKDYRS
Put plainly: intrinsic fluorescence titration. The format is binding.

Data set [3] concerns the target T1, Kvβ2 (β-subunit of the voltage-gated potassium channel). Put plainly: NADPH oxidation, specific activity at […]. It counts as biochemical. The source holds these as a separate data set.
The test system of data set [4] is O=C1C(=O)c2ccccc2-c2ccccc21. Put plainly: steady-state NADPH oxidation kinetics. It counts as biochemical, Rattus norvegicus.
Substrate in the data set “purified protein”: O=Cc1ccc([N+](=O)[O-])cc1
Put plainly: purified protein. The conditions noted are these: NADPH active site, Tyr-90 acid-base catalyst; binds after NADPH.

Substrate in data set [5]: CC(=O)C=O
Put plainly: steady-state NADPH oxidation kinetics. It counts as biochemical, Rattus norvegicus. The conditions noted are these: NADPH.

Substrate in data set [6]: CC(=O)c1ccc([N+](=O)[O-])cc1
Put plainly: steady-state NADPH oxidation kinetics. It counts as biochemical, Rattus norvegicus. The conditions noted are these: NADPH active site, Tyr-90 acid-base catalyst.

Regarding `CCCCC[C@H](O)/C=C/[C@H]1C(=O)C=C[C@@H]1C/C=C\CCCC(=O)O` [PGJ2], the “Specific activity” value in data set [1] turned out to be 0.086 ± 0.019 min⁻¹.
Turning to `NC(=O)C1=CN([C@@H]2O[C@H](COP(=O)(O)OP(=O)(O)OC[C@H]3O[C@@H](n4cnc5c(N)ncnc54)[C@H](OP(=O)(O)O)[C@@H]3O)[C@@H](O)[C@H]2O)C=CC1` [NADPH], the Kd in data set [2] worked out at 200 ± 5 nM; on Kvβ2:Y90F, 130 ± 11 nM.
For the molecule `CCCCC/C=C\CC(=O)/C=C/C=C\C/C=C\CCCC(=O)O` [12-oxoETE], in data set [3], the “Specific activity” value was 0.044 ± 0.007 min⁻¹.
On to “Kvβ2 (β-subunit of the voltage-gated potassium channel) (Rattus norvegicus)”, for which the Km in data set [4] came to 240 ± 140 µM.

B1: Kvβ2 (β-subunit of the voltage-gated potassium channel) (Rattus norvegicus) (protein)
chain: YRNLGKSGLRVSCLGLGTWVTFGGQITDEMAEHLMTLAYDNGINLFDTAEVYAAGKAEVVLGNIIKKKGWRRSSLVITTKIFWGGKAETERGLSRKHIIEGLKASLERLQLEYVDVVFANRPDPNTPMEETVRAMTHVINQGMAMYWGTSRWSSMEIMEAYSVARQFNLIPPICEQAEYHMFQREKVEVQLPELFHKIGVGAMTWSPLACGIVSGKYDSGIPPYSRASLKGYQWLKDKILSEEGRRQQAKLKELQAIAERLGCTLPQLAIAWCLRNEGVSSVLLGASNAEQLMENIGAIQVLPKLSSSIVHEIDSILGNKPYSKKDYRS
Regarding B1, the Km in the data set “purified protein” stood at 283 ± 31 µM; in data set [5] it was 12000 ± 1000 µM; in data set [6], 209 ± 49 µM. The kcat turned out to be 0.00267 s⁻¹ in the data set “purified protein” and 0.00153 ± 0.0001 s⁻¹ in data set [6]. For the same molecule, the kcat/Km in the data set “purified protein” was 9.83 M⁻¹ s⁻¹; in data set [6], 7.67 ± 1.5 M⁻¹ s⁻¹.
